From PMC7699296, “Dual-Channel Stopped-Flow Apparatus for Simultaneous Fluorescence, Anisotropy, and FRET Kinetic Data Acquisition for Binary and Ternary Biological Complexes” (Biosensors, 2020)

Key:
Conditions in all cases: both partners purified
[1] = target: T1, full-length Tata Binding Protein from Saccharomyces cerevisiae (Saccharomyces cerevisiae, UniProt P13393 1-240); test: stopped-flow fluorescence anisotropy kinetics (dual-channel, rF(t)); derived over the range 15 °C to 25 °C from the kon values: van't Hoff plot, and KD estimated with a dissociation rate constant cited from other work
T1 construct: also called yTBP; TBP; source: Escherichia coli, purified
T1 sequence (looked up): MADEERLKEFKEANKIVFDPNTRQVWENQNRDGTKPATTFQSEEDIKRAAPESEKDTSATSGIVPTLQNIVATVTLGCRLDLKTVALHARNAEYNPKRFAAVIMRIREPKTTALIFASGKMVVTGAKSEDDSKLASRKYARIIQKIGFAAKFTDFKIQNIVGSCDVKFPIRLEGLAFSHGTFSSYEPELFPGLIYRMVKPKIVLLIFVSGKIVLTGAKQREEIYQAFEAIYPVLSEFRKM

[2] = target: T1, full-length Tata Binding Protein from …; test: stopped-flow fluorescence anisotropy kinetics (dual-channel, rF(t)); 17 °C; preformed yTBP (220 nM)-AdMLP31ds*Flint (20 nM) in syringe 1, 850 nM TFIIA in syringe 2 (concentrations after mixing); 25 mM Tris, 100 mM KCl, 5 mM MgCl2, 1 mM CaCl2, 2 mM DTT; biphasic fit, kon from the fast eigenvalue
[3] = target: T1, full-length Tata Binding Protein from …; test: stopped-flow fluorescence anisotropy kinetics (dual-channel, rF(t)); 15 °C; preformed yTBP (220 nM)-AdMLP31ds*Flint (20 nM) in syringe 1, 850 nM TFIIA in syringe 2 (concentrations after mixing); 25 mM Tris, 100 mM KCl, 5 mM MgCl2, 1 mM CaCl2, 2 mM DTT; biphasic fit, kon from the fast eigenvalue
[4] = target: T1, full-length Tata Binding Protein from …; test: stopped-flow fluorescence anisotropy kinetics (dual-channel, rF(t)); 25 °C; preformed yTBP (220 nM)-AdMLP31ds*Flint (20 nM) in syringe 1, 850 nM TFIIA in syringe 2 (concentrations after mixing); 25 mM Tris, 100 mM KCl, 5 mM MgCl2, 1 mM CaCl2, 2 mM DTT; biphasic fit, kon from the fast eigenvalue

B1: yeast Transcription Factor II A (complex)
chain 1: MSNAEASRVYEIIVESVVNEVREDFENAGIDEQTLQDLKNIWQKKLTETKVTTFSWDNQFNEGNINGVQNDLNFNLATPGVNSSEFNIKEENTGNEGLILPNINSNNNIPHSGETNINTNTVEATNNSGATLNTNTSGNTNADVTSQPKIEVKPEIELTINNANITTVENIDDESEKKDDEEKEEDVEKTRKEKEQIEQVKLQAKKEKRSALLDTDEVGSELDDSDDDYLISEGEEDGPDENLMLCLYDKVTRTKARWKCSLKDGVVTINRNDYTFQKAQVEAEWV
chain 2: MAVPGYYELYRRSTIGNSLVDALDTLISDGRIEASLAMRVLETFDKVVAETLKDNTQSKLTVKGNLDTYGFCDDVWTFIVKNCQVTVEDSHRDASQNGSGDSQSVISVDKLRIVACNSKKSE
modifications: Construct and limits are not given; the full-length TOA1/TOA2 heterodimer is assumed. Species is inferred from the label yTFIIA and the S. cerevisiae TBP used with it.
B1 was tested, and the Kd [1] was 2.1 to 6.6 nM, the dH [1] was 19.6 ± 1.6 kcal/mol and the kon [2] was 1.84e+06 M⁻¹ s⁻¹. For the same binder, the kon [3] was 1.45e+06 M⁻¹ s⁻¹ and the kon [4] was 4.68e+06 M⁻¹ s⁻¹.
